The data set relates to T1, recombinant MBP-peptide fusion protein (MBP-29).
T1 sequence: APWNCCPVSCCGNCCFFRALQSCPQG

For ProMMP-9 activated with MBP-MMP3, the “enzymatic activity of MMP-9 after MMP-3 dependent activation ([3H]-labeled gelatin substrate)” value is on record as “MMP-3 dependent activation of MMP was inhibited in a dose-dependent manner”.

For the substance proMMP-9 (CALBIOCHEM), the “enzymatic activity of MMP-9 ([3H]-labeled gelatin substrate, TCA soluble radioactivity)” value is “inhibited MMP-9 activity in a dose-dependent manner”.

These data come from patent publication US20020159989.
